Data published in US20150232562A1 (Ablynx, published 2015).
Numbering of substitutions follows the chain as printed.

B1: 47E5 (VHH)
VHH: EVQLVESGGGLVQAGGSLRLSCAASASIFGFDSMGWYRQAPGNERILVAIISNGGTTSYRDSVKGRFTIARDNAKNTVSLQMNSLKPEDTAVYYCNLDRRSYNGRQYWGQGTQVTVSS
notes: C-term myc-His6 tag
B2: 11A111/1-126 (VHH)
VHH: EVQLVESGGGLVQAGGSLGLSCAAAGRTFSSSLMGWFRQAPGKEREFVAAITDNGGSTYYADSVKGRFTISRDNAKNSVYLQMNSLKPEDTAIYYCAARRSGYYSLSTSPHQYAYWGQGTQVTVSS
notes: C-term myc-His6 tag
B3: 17B7 (VHH)
VHH: EVQLVESGGGLVQAGGSLRLSCAASGIISSFRTMAWYRQAPGKQRDWVATIGSDGLANYADSVKGRFTISRDNAKKTVYLQMNSLKPEDTAVYFCRDINRDYWGQGTQVTVSS
notes: C-term myc-His6 tag
B4: 15B6 (VHH)
VHH: B3 VHH with A14P, S29G, K43N, D54A, N58S, K64R, I69L, V92I, F94Y, R100G
notes: C-term myc-His6 tag
B5: 30D10 (VHH)
VHH: EVQLVESGGGLVQAGGSLTLSCTASETTVRIRTMAWYRQPPGNQREWVATIGSNGFATYPDSVKGRFTISRDNAKNTVYLQMNSLKPEDTAVYYCRDINRDIWGQGSQVTVSS
notes: C-term myc-His6 tag
B6: 27E5 (VHH)
VHH: B5 VHH
notes: C-term myc-His6 tag
B7: 30D10 (second entry, SEQ ID NO: 2204) (VHH)
VHH: B5 VHH
notes: C-term myc-His6 tag
B8: 27B3 (VHH)
VHH: B5 VHH
notes: C-term myc-His6 tag
B9: 27D6 (VHH)
VHH: B5 VHH
notes: C-term myc-His6 tag
B10: 13G111/1-123 (VHH)
VHH: EVQLVESGGGLVQAGGSLRLSCAASGRTFSSYAMGWFRQAPGKERAFVAAIRWSGGNTYYADSVKGRFTISRDNAKNTVYLQMNSLKPEDTAVYYCAADTFTLSTLSHEYDYWGQGTQVTVSS
notes: C-term myc-His6 tag
B11: 27E7 (VHH)
VHH: EVQLVESGGGLVQAGGSLRLSCAASGITFRRYDMGWYRQFPGKERELVATILSEGDTNYVDPVKGRFTISRDNAKNTVYLQMNDLKPEDTAVYYCNGVWRAIGRTYWGQGTQVTVSS
notes: C-term myc-His6 tag
B12: 27F2 (VHH)
VHH: EVQLVESGGGLVQAGGSLRLSCAASGIISSFRTLAWYRQAPGKQRDWVATISSAGGTAYADAVKGRFTISISRDNVEYTVDLQMDSLKPEDTAVYYCRDINGDYWGQGTQVTVSS
notes: C-term myc-His6 tag
B13: 17A3 (VHH)
VHH: EVQLVESGGGLVQAGGSLSLSCAASATLHRFDNNWYRQAPGKQRELVATIAHDGSTNYANSVKGRFTISRDNARDTLFLQMHALQPEDTAVYMCNLHRWGLNYWGQGTQVTVSS
notes: C-term myc-His6 tag
B14: 11A101/1-120 (VHH)
VHH: EVQLVESGGGLVQAGGSLRLSCAASGRTFNAMGWFRQAPGKEREFVAAISRSPGVTYYADSVKGRFTTSRDNAKNTVYLQMNDLKPEDTAVYYCAADFYLATLAHEYDYWGQGTQVTVSS
notes: C-term myc-His6 tag
B15: 17G11 (VHH)
VHH: EVQLVESGGGLVQAGGSLRLSCAASGSTFSINRWGWYRQAPGKQRELVAAIDDGGNTEYSDFVNGRFTISRDNPETAVHLQMNSLKLEDTAVYYCNAKQLPYLQNFWGQGTQVTVSS
notes: C-term myc-His6 tag
B16: 15E10 (VHH)
VHH: EVQLVESGGGLVQAGGSLKLSCVASGITFFRYTMGWYRQAPGKERELVAEISSADEPSFADAVKGRFTISRDNAKNTVVLQMNGLKPEDTAVYYCKGSWSYPGLTYWGKGTLVTVSS
notes: C-term myc-His6 tag
B17: 11A22/1-122 (VHH)
VHH: EVQLVESGGGLVQAGGSLRLSCAASGRTFSSYAMAWFRQAPGTEREFIAGIRWSDGSTYYADSVKGRFTISRDNAKNTVYLQMNSLKPEDTAVYYCAADFYVSTLAHEYDYWGQGTQVTVSS
notes: C-term myc-His6 tag
B18: 12E11/1-122 (VHH)
VHH: B17 VHH with T43K, I48V, A49G, N77I
notes: C-term myc-His6 tag
B19: 12D44/1-122 (VHH)
VHH: B17 VHH with E1K, D73A, S85G
notes: C-term myc-His6 tag
B20: 13F71/1-123 (VHH)
VHH: EVQLVESGGGLVQAGGSLRLSCVASGRTFSNYALAWFRQAPGKEREFVAAINWRSGGSTYYADSVKGRFTISRDNAKNTVYLQMNSLKPEDTAVYYCAADLIVATLPGEYDYWGQGTQVTVSS
notes: C-term myc-His6 tag
B21: 14D4 (VHH)
VHH: EVQLVESGGGLVQAGDSLRLSCAASGRALDTYVMGWFRQAPGDGREFVAHIFRSGITSYASSVKGRFTISRDNAKNTVYLQMASLKPEDTAAYYCAARPSDTTWSESSASWGQGTQVTVSS
notes: C-term myc-His6 tag
B22: 15H4 (VHH)
VHH: EVQLVESGGGLVQAGGSLTLSCAPSESTVSFNTVAWYRQAPGEQREWVATISRQGMSTYPDSVKGRFTISRDNAKNTVYLQMNNLKPEDTAVYYCRDINHDIWGRGSQVTVSS
notes: C-term myc-His6 tag
B23: 14H61/1-122 (VHH)
VHH: EVQLVESGGGLVQAGGSLRLSCAASGRTFSRFAMGWFRQAPGKEREFVAAVRWSDDYTYYADSVKGRFTISRDNAKNTVYLQMNSLSPEDTAVYYCAADEILATLPHEYDYWGQGTQVTVSS
notes: C-term myc-His6 tag
B24: 17D7 (VHH)
VHH: EVQLVESGGGLVQPGGSLRLSCAASGFTLDYCAIGWFRQAPGKEREGVSCISSSDGSTYYADSVKGRFTISRDNAKNTVYLQMNSLKPEDTAVYYCATDRGSGTCYADFGSWGQGTQVTVSS
notes: C-term myc-His6 tag
B25: 15A2 (VHH)
VHH: EVQLVESGGGLAQAGGSLSLSCAASGRFFSTRVMAWYRQTPGKQREFVASMRGSGSTNYADSARGRFAISRDNAKNTVYLQMNSLKPEDTAVYYCRDINEDQWGQGTQVTVSS
notes: C-term myc-His6 tag
B26: 17A8 (VHH)
VHH: B25 VHH with A12V, A63V, T77M, S84T
notes: C-term myc-His6 tag
B27: 17H10 (VHH)
VHH: EVQLVESGGGLVQAGGSLSLSCSASGRFFSTRVMAWYRQTPGNQREFVATIHSSGSTIYADSVRGRFAISRDNAKNTVYLQMRSLKPEDTAVYYCRDINADQWGQGTQVTVSS
notes: C-term myc-His6 tag
B28: 27A3 (VHH)
VHH: B25 VHH with A12V, A23V, A63V, S84T
notes: C-term myc-His6 tag
B29: 47G11 (VHH)
VHH: EVQLVESGGGLVQPGGSLRLSCAASGRIFYPMGWFRQAPGKEREFVAAIGSGDIITYYADSVKGRFTISRDNAKNTVYLQMNSLKPEDTAVYYCASSRDYSRSRDPTSYDRWGQGTQVTVSS
notes: C-term myc-His6 tag
B30: 13C2 (VHH)
VHH: EVQLVESGGGLVQAGGSLRLSCAASGSTFSINRMAWYRQSPGKQRELVAAVDNDDNTEYSDSVAGRFTISRDNAKNAVHLQMNSLRLEDTAVYYCNAKQLPYLQNFWGQGTQVTVSS
notes: C-term myc-His6 tag
B31: 17A6 (VHH)
VHH: EVQLVESGGGLVQPGGSLRLSCAASGFTFSSYAMSWVRQAPGKGLEWVSAISSGGGSITTYADSVKGRFTISTDNAKNTLYLQMSSLKPEDTALYYCAKARSSSSYYDFGSWGQGTQVTVSS
notes: C-term myc-His6 tag
B32: 12D51/1-120 (VHH)
VHH: EVQLVESGGGLVQPGGSLRLSCAASGSAFSIKSMGWYRQAPGKQRELAAVIISSGTTTYADSVKGRFTISRDSAKNTVYLQMDSLKPEDTAVYVCNAVYVSTWGNGYDYWGQGTQVTVSS
notes: C-term myc-His6 tag
B33: 22B12/1-124 (VHH)
VHH: EVQLVESGGGLVQAGGSLRLSCAASGRTFSSYAMAWFRQAPGKEREFVAGINKSGGITHSADSVKGRFTISRDNAKNTVYLQMNSLKPEDTAVYYCAADAYTVIATLPHEYDYWGQGTQVTVSS
notes: C-term myc-His6 tag
B34: 15D10 (VHH)
VHH: EVQLVESGGGLVQPGGSLKLSCAASGFTFSSYRMYWVRQAPGKGLEWVSAIKPDGSITYYADSVKGRFTISRDNAKNTVYLQMNSLKPEDTAVYYCATDCGVPGFGWTFSSWGQGTQVTVSS
notes: C-term myc-His6 tag
B35: 17A5 (VHH)
VHH: EVQLVESGGGLVQPGGSLRLSCAASGFTFDDYSMSWVRQATGKGLEWVSGISWNGGSTNYADSVKGRFTISRDNVKNTLYLQMNSLKSEDTAVYYCAKDLGNSGRGPYTNWGQGTQVTVSS
notes: C-term myc-His6 tag
B36: 15D2 (VHH)
VHH: EVQLVESGGGLVQAGGSLRLSCVVSGVFGPIRAMAWYRQAPGKQRDWVATIGSSGHPVYTDSVKGRFTFSKDGAKNTVYLQMNSLKPEDTAVYYCRDINRDYWGQGTQVTVSS
notes: C-term myc-His6 tag
B37: 46D4 (VHH)
VHH: EVQLVESGGGLVQPGGSLRLSCAASGFIFDDYAMSWVRQAPGKGLEWVSSINWSGTHTDYAEDMKGRFTISRDNAKKTLYLQMNSLQSEDTAVYYCAKGWGPAVTSIPVATLGTQVTVSS
notes: C-term myc-His6 tag

target: T1, recombinant human ErbB2/Fc chimera (human, UniProt P04626 23-652); assay: ELISA, coated ErbB2/Fc
T1 construct: bought from R&D Systems; also called rhErbB2-Fc; rhErb2-Fc; Fc part of the bought chimera not given; not described

binding result | Binder
binds | B1
binds | B2
binds | B3
binds | B4
binds | B5
binds | B6
binds | B7
binds | B8
binds | B9
binds | B10
binds | B11
binds | B12
binds | B13
binds | B14
binds | B15
binds | B16
binds | B17
binds | B18
binds | B19

binding result | Binder
binds | B20
binds | B21
binds | B22
binds | B23
binds | B24
binds | B25
binds | B26
binds | B27
binds | B28
binds | B29
binds | B30
binds | B31
binds | B32
binds | B33
binds | B34
binds | B35
binds | B36
binds | B37
